Experimental data published in patent US6465220.

Legend:
[1] = system: GalNAc4TAP24 glycopeptide
[2] = system: EA2 peptide
[3] = system: Muc1a′ peptide
[4] = system: Muc1b′ peptide
[5] = system: Muc2 peptide
[6] = system: Muc7 peptide
[7] = system: PSGL-1b peptide
[8] = system: TAP24 peptide
[9] = system: PSGL-1a peptide
[10] = system: hCG-β peptide
hCG-β peptide, sequence (chain, as listed by the source): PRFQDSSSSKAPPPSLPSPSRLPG

soluble human GalNAc-T4 (pAcGP67-GalNAc-T4506Vsol), amino acid residues 32-578, sequence (chain, as listed by the source): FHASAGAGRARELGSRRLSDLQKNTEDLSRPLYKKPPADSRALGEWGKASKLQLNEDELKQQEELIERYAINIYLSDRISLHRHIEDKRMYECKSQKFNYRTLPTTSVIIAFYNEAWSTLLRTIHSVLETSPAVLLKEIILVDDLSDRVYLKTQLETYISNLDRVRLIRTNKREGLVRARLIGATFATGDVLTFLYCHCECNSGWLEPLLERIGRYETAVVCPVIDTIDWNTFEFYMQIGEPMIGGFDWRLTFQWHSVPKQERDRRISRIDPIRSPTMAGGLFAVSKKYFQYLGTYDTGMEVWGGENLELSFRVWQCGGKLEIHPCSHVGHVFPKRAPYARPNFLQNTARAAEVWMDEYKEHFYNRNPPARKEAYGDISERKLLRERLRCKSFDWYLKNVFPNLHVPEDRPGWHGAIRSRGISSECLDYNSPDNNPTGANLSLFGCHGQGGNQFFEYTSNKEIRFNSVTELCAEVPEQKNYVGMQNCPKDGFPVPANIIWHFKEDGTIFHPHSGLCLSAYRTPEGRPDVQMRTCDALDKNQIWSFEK
PSGL-1b peptide, sequence (chain, as listed by the source): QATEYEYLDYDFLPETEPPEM
soluble recombinant human GalNAc-T2 (pAcGP67-GalNAc-T2-sol), sequence (chain, as listed by the source): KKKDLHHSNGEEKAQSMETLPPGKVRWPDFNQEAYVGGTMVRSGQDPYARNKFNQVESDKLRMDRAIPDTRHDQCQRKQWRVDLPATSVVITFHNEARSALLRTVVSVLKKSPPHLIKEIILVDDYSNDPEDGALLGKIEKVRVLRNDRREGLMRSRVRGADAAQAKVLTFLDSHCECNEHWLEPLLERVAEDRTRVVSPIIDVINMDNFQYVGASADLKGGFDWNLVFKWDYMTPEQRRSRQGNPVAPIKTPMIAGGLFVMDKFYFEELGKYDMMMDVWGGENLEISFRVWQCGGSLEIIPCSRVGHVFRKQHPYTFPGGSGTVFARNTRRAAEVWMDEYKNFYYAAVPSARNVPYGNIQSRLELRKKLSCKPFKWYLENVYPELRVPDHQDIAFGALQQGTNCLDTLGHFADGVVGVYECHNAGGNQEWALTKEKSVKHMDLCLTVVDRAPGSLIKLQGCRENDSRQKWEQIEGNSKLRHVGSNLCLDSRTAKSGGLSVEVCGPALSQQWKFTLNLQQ
full coding human GalNAc-T4 (pVL-GalNAc-T4506Vfull) expressed in Sf9 cells, sequence (chain, as listed by the source): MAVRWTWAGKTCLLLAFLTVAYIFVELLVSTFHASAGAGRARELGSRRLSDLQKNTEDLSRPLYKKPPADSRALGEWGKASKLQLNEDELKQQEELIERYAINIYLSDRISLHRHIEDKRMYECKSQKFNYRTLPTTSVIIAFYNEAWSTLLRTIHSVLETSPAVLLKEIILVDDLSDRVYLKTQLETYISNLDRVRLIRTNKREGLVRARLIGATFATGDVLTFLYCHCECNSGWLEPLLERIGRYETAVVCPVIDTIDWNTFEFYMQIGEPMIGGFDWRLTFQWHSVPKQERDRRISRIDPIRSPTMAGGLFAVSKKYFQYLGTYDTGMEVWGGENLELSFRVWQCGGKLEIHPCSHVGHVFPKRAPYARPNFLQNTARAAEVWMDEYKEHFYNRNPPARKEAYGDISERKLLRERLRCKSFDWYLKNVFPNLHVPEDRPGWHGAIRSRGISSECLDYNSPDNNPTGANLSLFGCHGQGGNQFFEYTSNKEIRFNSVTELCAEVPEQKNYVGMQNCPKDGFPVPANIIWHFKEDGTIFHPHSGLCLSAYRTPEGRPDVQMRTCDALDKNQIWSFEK

Row | Substance | GalNAc-transferase activity at 0.06 mM peptide (milliunits/mg) [2] | GalNAc-transferase activity at 0.25 mM peptide (milliunits/mg) [2] | Km for acceptor substrate [2] | Vmax [2] | GalNAc-transferase activity at 0.06 mM peptide (milliunits/mg) [1] | GalNAc-transferase activity at 0.25 mM peptide (milliunits/mg) [1] | GalNAc-transferase activity at 0.25 mM peptide (milliunits/mg) [3] | GalNAc-transferase activity at 1 mM peptide (milliunits/mg) [3] | GalNAc-transferase activity at 0.25 mM peptide (milliunits/mg) [4] | GalNAc-transferase activity at 1 mM peptide (milliunits/mg) [4] | GalNAc-transferase activity at 0.06 mM peptide (milliunits/mg) [5] | GalNAc-transferase activity at 0.25 mM peptide (milliunits/mg) [5] | GalNAc-transferase activity at 0.06 mM peptide (milliunits/mg) [6] | GalNAc-transferase activity at 0.25 mM peptide (milliunits/mg) [6] | Km for acceptor substrate [6] | Vmax [6] | GalNAc-transferase activity at 0.06 mM peptide (milliunits/mg) [7] | GalNAc-transferase activity at 0.25 mM peptide (milliunits/mg) [7] | Km for acceptor substrate [7] | GalNAc-transferase activity at 0.06 mM peptide (milliunits/mg) [8] | further results
1 | full coding human GalNAc-T4 (pVL-GalNAc-T4506Vfull) expressed in Sf9 cells | – | – | – | – | – | – | – | – | – | – | – | – | – | – | – | – | – | – | – | – | GalNAc incorporation by MALDI-TOF of HPLC-purified product [1]: no incorporation was detected
2 | soluble human GalNAc-T4 (pAcGP67-GalNAc-T4506Vsol), amino acid residues 32-578 | 15 | 42 | 2190 µM | 0.44 nmol/min/µg | 4.4 | 7.1 | 2 | 6.7 | 0.7 | 0.9 | 9 | 29 | 21 | 53 | 480 µM | 0.25 nmol/min/µg | 1.2 | 1.4 | 20 µM | 0.8 | Km for acceptor substrate [1]: 90 µM; Vmax [1]: 0.007 nmol/min/µg; Vmax [7]: 0.003 nmol/min/µg; GalNAc-transferase activity at 0.25 mM peptide (milliunits/mg) [8]: 2.7
3 | soluble recombinant human GalNAc-T2 (pAcGP67-GalNAc-T2-sol) | 152 | 376 | 850 µM | 1.8 nmol/min/µg | 0 | 0 | 28 | 83 | 198 | 582 | 169 | 128 | 737 | 396 | 15 µM | 0.64 nmol/min/µg | 0.3 | 0.3 | > 2000 µM | 73 | GalNAc-transferase activity [9]: exhibited poor activities with both peptide designs; GalNAc-transferase activity at 0.06 mM peptide (milliunits/mg) [9]: 0; GalNAc-transferase activity at 0.25 mM peptide (milliunits/mg) [9]: 0; GalNAc-transferase activity [7]: exhibited poor activities with both peptide designs; GalNAc-transferase activity at 0.25 mM peptide (milliunits/mg) [8]: 222; GalNAc-transferase activity at 0.06 mM peptide (milliunits/mg) [10]: 22; GalNAc-transferase activity at 0.25 mM peptide (milliunits/mg) [10]: 74
